The values that follow come from PMC7935953, “Insights on autophagosome–lysosome tethering from structural and biochemical characterization of human autophagy factor EPG5” (Communications Biology, 2021).

For the test, the target named is T1, GABARAP (Homo sapiens, UniProt O95166).
T1 construct: made in house; host or cells: E. coli (T7 Express)
Nature of the test: GST pull-down of hEPG5 (wild type and mutants) with GST-GABARAP bait. In kind it is binding. The settings on record: anti-FLAG western blot, compared to wild-type hEPG5, triplicates. Here is the method: For GST pull-down analysis, N-terminally GST-tagged LC3 and GABARAP proteins were expressed in Escherichia coli (T7 Express) cells. The cells were induced with 1 mM isopropyl β-d-1-thiogalacpyranoside [IPTG] for 4 h at 25 °C. The cell pellets were resuspended in 25 mL buffer E (50 mM Tris pH 8.0, 150 mM NaCl, and 1 mM PMSF). Cells were then sonicated for four cycles consisting of 1 min sonication followed by 2 min cooling on ice, with duty cycle set to 50% and output control at 5. Cell lysate was then centrifuged at 20,950 × g for 40 min at 4 °C. Supernatant was incubated for 1 h at 4 °C with glutathione resin (50% slurry, GenScript) pre-equilibrated with buffer E, while gently inverting. Resin was returned to the column and washed with buffer E. Proteins were eluted with 10 mM reduced glutathione (GoldBio) in buffer F (50 mM Tris pH 8.0, 150 mM NaCl). Free glutathione was removed by dialysis in buffer F and protein concentration was measured by spectrophotometry (NanoDrop, Thermo Scientific). Glycerol was added to a final concentration of 5%, then solutions were aliquoted and stored at −70 °C.
Pulldowns were performed with a 50 µL slurry of glutathione resin (50% slurry, GenScript). […]
All experiments were performed in triplicates. […] Intensity of His-FLAG-hEPG5, GST (control), and GST-LC3/GABARAP subfamily proteins in pull-down assays was quantified using Bio-Rad Image Lab Software v6.0. […]
On the technique in general: Immunoblotting shows a protein as a band on a membrane.

T1 sequence (O95166 whole entry): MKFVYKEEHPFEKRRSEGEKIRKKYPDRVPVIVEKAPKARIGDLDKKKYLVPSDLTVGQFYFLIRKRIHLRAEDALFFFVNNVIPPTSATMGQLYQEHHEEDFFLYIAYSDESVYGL

B1: hEPG5^Δ1–1198: hEPG5 truncation mutant which excludes the entire N-terminal region (protein)
chain: YHCDRSLLSSLVSWIVAGNITPSFVEGLATPTQVWFAWTVLNMESIFEEDSQLRRVIEGELVINSAFTPDQALKKAQTQLKLPIVPSLQRLLIYRWAHQALVTPSDHPLLPLIWQKFFLLYLHRPGPQYGLPIDGCIGRRFFQSPAHINLLKEMKRRLTEVADFHHAASKALRVPAEGSEGLPESHSGTPGYLTSPELHKELVRLFNVYILWLEDENFQKGDTYIPSLPKHYDIHRLAKVMQNQQDLWMEYLNMERIYHEFQETVGLWTQAKLESHSTPCSLSVQLDFTDPLLAKERVLSNLRKHEAPQPPLALHPTKPPVPVISSAVLLSQKDATQLVCTDLNLLQQQARTAALRESQQVALDGELLDTMPKQYVNREEQTTLHLECRGSSGKKCQGAAVVTVQFEGMHKNEAISQQLHVLRKEVKQLQAEAAKPPSLNIVEAAVHAENLITALVNAYKLQPTPGIQKVGISLFFTIVDYVSDETQRHPPTRQFFTSCIEILGQVFISGIKSECRKVLETILKNSRLCSLLSPFFTPNAAPAEFIQLYEQVVKFLSEDNSDMIFMLLTKFDLKQWLSATKPPLSDRTRLLESIHLALTAWGLEPDEDILMPFNLFCKHWTYLLLYQFPDQYSDILRLLMQSSAEQLLSPECWKATLRALGCCAPSCQQGAASTEGAVLPSSSDALLSDKQVMETIQWLSDFFYKLRLSKMDFKSFGLFSKWSPYMADVKTFLGYLVKRLIDLEMTCLAQDPTASRKTVLKSLHSVIIQLFKPWILVLEDNESSQQRHYPWLESDTVVASSIVQLFTDCIDSLHESFKDKLLPGDAGALWLHLMHYCEACTAPKMPEFILYAFHSTYRKLPWKDLHPDQMLMEAFFKVERGSPKSCFLFLGSVLCEVNWVSVLSDAWNSSPHPETRSMIVCLLFMMILLAKEVQLVDQTDSPLLSLLGQTSSLSWHLVDIVSYQSVLSYFSSHYPPSIILAKESYAELIMKLLKVSAGLSIPTDSQKHLDAVPKCQAFTHQMVQFLSTLEQNGKITLAVLEQEMSKLLDDIIVFNPPDMDSQTRHMALSSLFMEVLMMMNNATIPTAEFLRGSIRTWIGQKMHGLVVLPLLTAACQSLASVRHMAETTEACITAYFKESPLNQNSGWGPILVSLQVPELTMEEFLQECLTLGSYLTLYVYLLQCLNSEQTLRNEMKVLLILSKWLEQVYPSSVEEEAKLFLWWHQVLQLSLIQTEQNDSVLTESVIRILLLVQSRQNLVAEERLSSGILGAIGFGRKSPLSNRFRVVARSMAAFLSVQVPMEDQIRLRPGSELHLTPKAQQALNALESMASSKQYVEYQDQILQATQFIRHPGHCLQDGKSFLALLVNCLYPEVHYLDHIR
modifications: left off: His, end not stated, kept | FLAG, end not stated, kept
notes: hEPG5 truncation mutant which excludes the entire N-terminal region
For B1, the “binding to GABARAP in GST pull-down, in words” value is “but not hEPG5^Δ1–1198 was pulled down by GABARAP”.
